Data from patent US20210139568A1 (AXON NEUROSCIENCE, published 2021).

Experiments:
[1] = biological target: in vitro phosphorylated tau deletion mutant tau 221-441 (human, UniProt P10636 538-758, phosphorylated in vitro with rat brain kinase extract; sites not listed); test: immunoblot of in vitro phosphorylated tau deletion mutants
[2] = biological target: T1, in vitro phosphorylated tau 2N4R point mutant Thr217Ala (human, UniProt P10636 1-758, phosphorylated in vitro with rat brain kinase extract; sites not listed); test: immunoblot of in vitro phosphorylated tau 2N4R point mutants
T1 construct: also called Thr217A1a
Description: Soluble tau proteins were diluted with an equal volume of 2×SDS (sodium dodecylsulfate) sample loading buffer (with β-mercaptoethanol) (Laemmli, 1970) and 250 ng of proteins were loaded per lane. For insoluble PHF-tau, the pellets were dissolved in 1×SDS-sample loading buffer, in 1/50 volume of the soluble fraction used for the preparation of the insoluble tau fraction. Then, equal volumes of soluble tau and sarkosyl-insoluble tau fractions were used for immunoblotting, which corresponded to 15 μg of total protein in the soluble fraction (see Filipcik et al. 2010). Samples were heated at 95° C. for 5 min, loaded onto 5-20% gradient SDS polyacrylamide gels, and electrophoresed in a Tris-glycine-SDS buffer system for 40 minutes at 25 mA. Proteins were transferred to a polyvinylidene fluoride (PVDF) membrane (1 h at 150 mA in 10 mM CAPS, pH 12). […] The blots were developed with SuperSignal West Pico Chemiluminescent Substrate (Pierce, U.S.A), and the protein signals detected using a LAS3000 imaging system (FUJI Photo Film Co., Japan). The chemiluminescence signal intensities were quantified using AIDA (Advanced Image Data Analyzer, Raytest, Straubenhardt, Germany) software. […]

[3] = biological target: T2, in vitro phosphorylated human tau 2N4R (human, UniProt P10636 1-758, phosphorylated in vitro with rat brain kinase extract; the phosphorylated sites are not listed); test: immunoblot
T2 construct: also called phosphorylated tau 2N4R; 2N4R in vitro phosphorylated
T2 sequence (P10636 other isoform, or with tags, fused parts or gaps limits assumed): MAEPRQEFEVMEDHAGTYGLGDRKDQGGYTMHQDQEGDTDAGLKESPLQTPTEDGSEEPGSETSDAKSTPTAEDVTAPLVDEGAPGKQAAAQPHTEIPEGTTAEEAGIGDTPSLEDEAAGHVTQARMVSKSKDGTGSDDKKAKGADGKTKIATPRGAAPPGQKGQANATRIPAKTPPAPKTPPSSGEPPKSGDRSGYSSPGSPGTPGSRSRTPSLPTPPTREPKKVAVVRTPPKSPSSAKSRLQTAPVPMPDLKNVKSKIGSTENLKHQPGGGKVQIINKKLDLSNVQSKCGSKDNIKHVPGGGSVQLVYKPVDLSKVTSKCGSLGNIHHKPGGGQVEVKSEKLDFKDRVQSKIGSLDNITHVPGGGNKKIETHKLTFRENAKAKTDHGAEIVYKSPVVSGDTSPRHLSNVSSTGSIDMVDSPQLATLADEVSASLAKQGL
Description: (§1) Adult rat brain (1 g/2.5 ml) was homogenized in kinase buffer (10 mM TRIS-HCl, pH 7.4; 5 mM EGTA, 2 mM DTT; 1 mM PMSF; 2 mM MgCl₂, leupeptin ([…]), pepstatin ([…]), aprotinin ([…])) and after centrifugation at 100,000×g for 30 min at 4° C. the supernatant (kinase extract) was used for the phosphorylation of tau. The phosphorylation reaction was carried out at 37° C. in 10 mM TRIS-HCl, pH 7.4; 5 mM EGTA, 2 mM DTT; 1 mM PMSF; leupeptin (20 μg/ml); pepstatin (20 μg/ml); aprotinin (20μg/ml); 2 mM ATP; 2 mM MgCl₂ and 10 μM okadaic acid. The brain kinase extract (5μl) was added to 50 μl tau solution (1 μM) and reaction was incubated at 37° C. for 24 h. The phosphorylation of tau was analysed by SDS-PAGE and immunoblotting using rabbit anti-serum raised against six recombinant human tau isoforms (Csokova et al., Rapid purification of truncated tau proteins: model approach to purification of functionally active fragments of disordered proteins, implication for neurodegenerative diseases, Protein Expression and Purification, 35:366-372, 2004).
(§2) Soluble tau proteins were diluted with an equal volume of 2×SDS (sodium dodecylsulfate) sample loading buffer (with β-mercaptoethanol) (Laemmli, 1970) and 250 ng of proteins were loaded per lane. […]

[4] = biological target: in vitro phosphorylated tau151-391 (human, UniProt P10636 468-708, phosphorylated in vitro with rat brain kinase extract; the phosphorylated sites are not listed); test: immunoblot
Sequence of in vitro phosphorylated tau151-391 (P10636 468-708 I625L): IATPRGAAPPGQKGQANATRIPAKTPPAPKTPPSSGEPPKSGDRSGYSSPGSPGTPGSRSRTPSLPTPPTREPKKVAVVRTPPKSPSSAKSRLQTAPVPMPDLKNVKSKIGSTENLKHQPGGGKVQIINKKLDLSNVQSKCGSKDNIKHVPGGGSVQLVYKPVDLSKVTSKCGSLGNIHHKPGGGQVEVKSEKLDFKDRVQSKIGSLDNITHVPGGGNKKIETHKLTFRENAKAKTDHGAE
Description: as §1, §2

[5] = biological target: T3, recombinant tau deletion mutant tau 1-242 (human, UniProt P10636 1-559); test: hybridoma screening ELISA on coated tau 1-242
T3 construct: Numbered on tau 2N4R; It was the immunogen for DC2E2
T3 sequence (P10636 other isoform, or with tags, fused parts or gaps mutant): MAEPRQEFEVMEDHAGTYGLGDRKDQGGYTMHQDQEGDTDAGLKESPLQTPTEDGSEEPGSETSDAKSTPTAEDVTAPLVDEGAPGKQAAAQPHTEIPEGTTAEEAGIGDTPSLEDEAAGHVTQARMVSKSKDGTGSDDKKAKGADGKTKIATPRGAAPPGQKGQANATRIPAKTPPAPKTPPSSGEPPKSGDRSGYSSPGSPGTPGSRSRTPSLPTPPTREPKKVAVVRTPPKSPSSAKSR
Description: The plates were blocked with 1% nonfat dried milk to reduce nonspecific binding, washed with PBS-0.05% Tween 20, and incubated with 50 μl/well of hybridoma culture supernatant for 1 hr at 37° C. Bound monoclonal antibodies were detected with sheep anti-mouse immunoglobulin (Ig) conjugated with horse radish peroxidase (HRP, DAKO). The reaction was developed with TMB one (Kem-En-Tec Diagnostics) as a peroxidase substrate and stopped with 50 μl of 2 M H₂SO₄. Absorbance at 450 nm was measured using a Powerwave HT (Bio-Tek). Readouts with an absorbance value of at least twice the value of the negative controls (PBS) were considered positive. Positive hybridoma cultures were further subcloned in soft agar according to the procedure described in Kontsekova et al., One-step method for establishing 8-azaguanine-resistant hybridomas suitable for preparation of triomas, J. Immunol. Methods, 145, 247-250 (1991).

[6] = biological target: T4, recombinant human tau isoform 2N3R (human, UniProt P10636-5 2-410); test: ELISA, coated recombinant tau protein, hybridoma supernatant
T4 construct: mature
T4 sequence (P10636 other isoform, or with tags, fused parts or gaps): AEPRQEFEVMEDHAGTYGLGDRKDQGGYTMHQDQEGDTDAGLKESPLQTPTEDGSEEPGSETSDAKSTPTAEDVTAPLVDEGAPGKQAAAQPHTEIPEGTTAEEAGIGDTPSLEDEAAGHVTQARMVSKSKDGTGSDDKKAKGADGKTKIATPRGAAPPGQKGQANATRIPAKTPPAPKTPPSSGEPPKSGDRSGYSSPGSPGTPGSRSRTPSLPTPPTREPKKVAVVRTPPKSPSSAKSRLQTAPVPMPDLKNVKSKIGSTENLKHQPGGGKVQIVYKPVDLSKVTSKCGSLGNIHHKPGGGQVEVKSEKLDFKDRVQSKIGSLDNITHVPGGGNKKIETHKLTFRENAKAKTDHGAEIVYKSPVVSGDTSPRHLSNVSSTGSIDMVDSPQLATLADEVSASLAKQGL
Description: (§3) Deletion mutants of human tau protein 2N4R were used for epitope mapping of DC2E2 using ELISA (FIG. 2A). Recombinant human tau isoforms 2N4R, 1N4R, 2N3R, 0N4R, 1N3R, 0N3R and tau deletion mutants were prepared as described in Example 1. Microtiter plates were coated overnight at 37° C. with recombinant tau proteins ([…] in PBS, 50 μl/well). The plates were blocked with PBS-Tween20 (0.1% v/v) to reduce nonspecific binding and were incubated with 50 μl/well of DC2E2 hybridoma culture supernatant, for 1 hr at 37° C. Bound monoclonal antibody was detected with sheep anti-mouse Ig HRP-conjugated (DAKO). The reaction was developed with TMB one solution (Kem-En-Tec Diagnostics) as a peroxidase substrate and stopped with 50 μl of 2M H₂SO₄. Absorbance was measured at 450 nm using a Powerwave HT (Bio-Tek). Readouts with an absorbance value of at least twice the value of the negative controls (PBS) were considered positive.

[7] = biological target: T5, recombinant human tau isoform 0N4R (human, UniProt P10636-6 2-383); test: as above
T5 construct: mature
T5 sequence (P10636 other isoform, or with tags, fused parts or gaps): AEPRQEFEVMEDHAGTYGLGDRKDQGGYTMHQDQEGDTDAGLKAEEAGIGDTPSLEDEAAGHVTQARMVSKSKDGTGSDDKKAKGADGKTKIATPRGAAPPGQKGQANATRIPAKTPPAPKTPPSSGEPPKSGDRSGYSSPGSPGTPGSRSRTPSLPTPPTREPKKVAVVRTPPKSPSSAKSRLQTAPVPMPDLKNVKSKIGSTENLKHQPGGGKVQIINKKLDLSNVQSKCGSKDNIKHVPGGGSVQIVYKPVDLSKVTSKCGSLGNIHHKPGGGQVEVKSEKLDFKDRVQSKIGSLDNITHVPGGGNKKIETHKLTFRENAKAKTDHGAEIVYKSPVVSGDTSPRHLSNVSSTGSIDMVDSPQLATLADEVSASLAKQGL
Description: as §3

[8] = biological target: T6, recombinant human tau isoform 1N3R (human, UniProt P10636-4 2-381); test: as above
T6 construct: mature
T6 sequence (P10636 other isoform, or with tags, fused parts or gaps): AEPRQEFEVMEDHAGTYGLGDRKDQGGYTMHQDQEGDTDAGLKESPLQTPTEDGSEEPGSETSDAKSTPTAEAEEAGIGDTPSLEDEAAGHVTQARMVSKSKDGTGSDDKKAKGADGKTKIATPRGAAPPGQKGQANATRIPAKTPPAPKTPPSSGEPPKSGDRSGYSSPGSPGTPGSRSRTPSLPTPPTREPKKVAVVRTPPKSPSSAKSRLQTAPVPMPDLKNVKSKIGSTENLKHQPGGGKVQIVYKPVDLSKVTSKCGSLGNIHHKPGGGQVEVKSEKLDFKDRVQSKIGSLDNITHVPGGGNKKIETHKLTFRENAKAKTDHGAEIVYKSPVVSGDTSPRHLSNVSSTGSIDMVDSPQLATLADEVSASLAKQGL
Description: as §3

[9] = biological target: T7, recombinant human tau isoform 0N3R (human, UniProt P10636-2 2-352); test: as above
T7 construct: mature
Description: as §3

[10] = biological target: recombinant tau deletion mutant tau 31-441 (human, UniProt P10636 31-758); test: as above
Sequence of recombinant tau deletion mutant tau 31-441 (P10636 other isoform, or with tags, fused parts or gaps mutant): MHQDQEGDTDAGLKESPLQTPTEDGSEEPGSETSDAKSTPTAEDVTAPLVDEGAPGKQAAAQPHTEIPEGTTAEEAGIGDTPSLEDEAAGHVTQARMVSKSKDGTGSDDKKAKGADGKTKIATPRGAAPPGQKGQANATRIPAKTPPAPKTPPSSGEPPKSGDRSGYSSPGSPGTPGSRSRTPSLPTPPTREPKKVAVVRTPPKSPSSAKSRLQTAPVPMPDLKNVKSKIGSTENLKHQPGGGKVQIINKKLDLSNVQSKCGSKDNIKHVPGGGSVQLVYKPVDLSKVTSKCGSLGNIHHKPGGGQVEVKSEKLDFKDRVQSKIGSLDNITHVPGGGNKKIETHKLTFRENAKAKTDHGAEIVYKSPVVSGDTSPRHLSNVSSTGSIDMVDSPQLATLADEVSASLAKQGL
Description: as §3

[11] = biological target: recombinant tau deletion mutant tau 99-441 (human, UniProt P10636 99-758); test: as above
Sequence of recombinant tau deletion mutant tau 99-441 (P10636 other isoform, or with tags, fused parts or gaps mutant): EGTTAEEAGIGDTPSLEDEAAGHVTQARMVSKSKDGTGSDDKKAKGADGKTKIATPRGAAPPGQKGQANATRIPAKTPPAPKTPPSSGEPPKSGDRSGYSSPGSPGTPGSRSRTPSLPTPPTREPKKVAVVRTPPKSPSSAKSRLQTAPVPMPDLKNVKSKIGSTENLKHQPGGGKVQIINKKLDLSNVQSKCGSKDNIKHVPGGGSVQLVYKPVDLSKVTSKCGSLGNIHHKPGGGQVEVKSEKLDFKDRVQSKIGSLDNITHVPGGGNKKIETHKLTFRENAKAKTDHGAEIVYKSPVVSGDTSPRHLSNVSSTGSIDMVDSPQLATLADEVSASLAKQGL
Description: as §3

[12] = biological target: recombinant tau deletion mutant tau 1-226 (human, UniProt P10636 1-543); test: as above
Description: as §3

[13] = biological target: recombinant truncated tau151-391 (unphosphorylated) (human, UniProt P10636 468-708); test: as above
Sequence of recombinant truncated tau151-391 (unphosphorylated) (P10636 468-708 I625L): as the sequence (P10636 468-708 I625L) above
Description: as §3

[14] = biological target: recombinant tau deletion mutant tau 127-441 (human, UniProt P10636 378-758); test: as above
Sequence of recombinant tau deletion mutant tau 127-441 (P10636 other isoform, or with tags, fused parts or gaps mutant): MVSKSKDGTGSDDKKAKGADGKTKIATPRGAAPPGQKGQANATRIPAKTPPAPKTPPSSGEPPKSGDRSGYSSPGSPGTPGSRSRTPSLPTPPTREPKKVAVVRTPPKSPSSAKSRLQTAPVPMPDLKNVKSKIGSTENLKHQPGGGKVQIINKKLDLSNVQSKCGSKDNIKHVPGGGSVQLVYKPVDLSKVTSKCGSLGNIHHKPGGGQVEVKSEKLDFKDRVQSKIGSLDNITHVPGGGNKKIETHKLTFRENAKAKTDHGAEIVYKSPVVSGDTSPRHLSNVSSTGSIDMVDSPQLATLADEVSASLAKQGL
Description: as §3

[15] = biological target: T8, recombinant human tau isoform 1N4R (human, UniProt P10636-7 2-412); test: as above
T8 construct: mature
T8 sequence (P10636 other isoform, or with tags, fused parts or gaps): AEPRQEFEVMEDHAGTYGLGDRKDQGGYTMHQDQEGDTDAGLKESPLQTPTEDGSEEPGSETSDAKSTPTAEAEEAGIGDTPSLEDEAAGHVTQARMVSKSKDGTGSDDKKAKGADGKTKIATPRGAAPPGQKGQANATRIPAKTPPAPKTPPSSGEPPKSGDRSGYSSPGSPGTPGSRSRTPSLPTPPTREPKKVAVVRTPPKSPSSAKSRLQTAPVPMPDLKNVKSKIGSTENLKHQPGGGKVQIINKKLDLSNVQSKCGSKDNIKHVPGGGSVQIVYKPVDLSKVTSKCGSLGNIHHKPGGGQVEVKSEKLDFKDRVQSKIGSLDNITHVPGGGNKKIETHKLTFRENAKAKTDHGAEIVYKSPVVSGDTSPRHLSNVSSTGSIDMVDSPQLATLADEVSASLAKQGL
Description: as §3

[16] = biological target: recombinant tau deletion mutant tau 1-136 (human, UniProt P10636 1-387); test: ELISA, coated recombinant tau proteins, DC2E2 hybridoma supernatant
Sequence of recombinant tau deletion mutant tau 1-136 (P10636 other isoform, or with tags, fused parts or gaps mutant): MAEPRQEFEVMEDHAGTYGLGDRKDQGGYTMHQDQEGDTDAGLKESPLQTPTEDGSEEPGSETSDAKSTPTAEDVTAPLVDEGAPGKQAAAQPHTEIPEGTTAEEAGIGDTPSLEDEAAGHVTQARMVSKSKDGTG
Description: as §3

[17] = biological target: recombinant tau deletion mutant tau 221-441 (unphosphorylated) (human, UniProt P10636 538-758); test: as above
Sequence of recombinant tau deletion mutant tau 221-441 (unphosphorylated) (P10636 other isoform, or with tags, fused parts or gaps mutant): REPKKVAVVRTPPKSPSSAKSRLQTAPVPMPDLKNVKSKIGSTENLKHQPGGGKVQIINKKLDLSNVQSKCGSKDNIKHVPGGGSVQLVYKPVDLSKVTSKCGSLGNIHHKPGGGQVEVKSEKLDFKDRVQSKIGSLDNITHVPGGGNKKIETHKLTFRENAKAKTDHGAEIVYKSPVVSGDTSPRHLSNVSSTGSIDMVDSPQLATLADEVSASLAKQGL
Description: as §3

[18] = biological target: T9, recombinant tau deletion mutant tau2N4RΔ(134-168) (human, UniProt P10636 1-758); test: as above
T9 construct: Tau 2N4R with residues 134-168 deleted; also called tau 2N4R(A134-168)
T9 sequence (P10636 other isoform, or with tags, fused parts or gaps mutant): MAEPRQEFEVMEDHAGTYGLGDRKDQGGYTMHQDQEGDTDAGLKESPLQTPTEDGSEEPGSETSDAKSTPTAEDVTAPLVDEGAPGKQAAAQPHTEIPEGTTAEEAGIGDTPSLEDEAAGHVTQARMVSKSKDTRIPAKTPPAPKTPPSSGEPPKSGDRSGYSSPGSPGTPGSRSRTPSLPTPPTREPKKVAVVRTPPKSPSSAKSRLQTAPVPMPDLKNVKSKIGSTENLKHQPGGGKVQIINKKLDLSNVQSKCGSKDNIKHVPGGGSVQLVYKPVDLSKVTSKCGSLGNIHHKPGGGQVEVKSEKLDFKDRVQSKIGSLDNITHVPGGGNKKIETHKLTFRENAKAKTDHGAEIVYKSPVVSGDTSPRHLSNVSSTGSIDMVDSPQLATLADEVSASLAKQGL
Description: as §3

binding result [1] | binding result [2] | binding result [3] | binding result [4] | binding result [5] | binding result [6] | binding result [7] | binding result [8] | binding result [9] | binding result [10] | binding result [11] | binding result [12] | binding result [13] | binding result [14] | binding result [15] | binding result [16] | binding result [17] | binding result [18] | Binder
no binding | no binding | – | – | – | – | – | – | – | – | – | – | – | – | – | – | – | – | monoclonal antibody DC2E7 (antibody, mouse IgG2a, V domains shown, also called DC217 (apparent misprint)) VH: DVQLVESGGGLVQPGGSRKLSCAASGFTFSSFGMHWVRQAPEKGLEWVAYISGDSNTIYYADTVKGRFTISRDNPKNTLFLQMTSLRSEDTAIYYCARTLAYWGQGTLVTVS VL: DIQMTQSSSSFSVSLGDRVTITCKASEDIYNRLAWYQQTPGNAPSLLISGASGLETGVPSRFSGSGSGRDYTLSITSLQTEDVATYYCLQYWSIPWTFGGGTKLEIKR
– | – | binds | binds | binds | binds | binds | binds | binds | binds | binds | binds | binds | binds | binds | no binding | no binding | no binding | monoclonal antibody DC2E2 (antibody, V domains shown, Used as hybridoma supernatant or Protein G purified; biotinylated as detector in the digital ELISA) VH: EVQLQQSGAELVRPGALVKLSCKASGFNIKDYYMHWVRQRPDQGLEWIGWLDPENDHTIYDPRFQDRANLTADTSSNTAYLQLSSLTSEDTAVYYCSYYKYDDYWGQGTTLTVS VL: not shown
